# ± gives the standard deviation of the averaged measurements.
# Test system: ATP
# Assay: switch fluorescence ratio, 500 uM ATP over buffer (Cy3 cluster intensity, sum of 5 cycles each) (fold (ratio)); higher = stronger signal-on switching upon ATP binding; sequences stand for … in TCGTCGGCAGCGTCAGATGTGTATAAGAGACAGTTTTTTTTTTTTTTTTTTTTTTTTT…TC
# Conditions: aptamer strand: ATP DNA aptamer (quencher-CACCTGGGGGAGTATTGCGGAGGAAGG + anchor), 100 nM annealed; ATP concentration: 500 uM
# Procedure, shortened: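 Five buffer/ATP imaging cycles were run on Cy3-labelled switching-strand clusters on a modified Illumina MiSeq flow-cell, with NaOH stripping and re-annealing between cycles. In each cycle, clusters annealed to 100 nM quencher-labelled ATP aptamer were imaged in selection buffer, then after 15 min with 500 uM ATP at 22 °C. Per cluster, the fluorescence ratio is summed target-cycle over summed buffer-cycle Cy3 intensity, averaged per switch-domain sequence. Only clusters within 100-1000 RFU were kept.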
# 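Note: ATP exposure 15 min at 22 °C before imaging.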
row,Sequence,switch fluorescence ratio
1,GTGTCAACTA,0.987 ± 0.016
2,TAGACGGGCA,1.01 ± 0.015
3,CATTAATAGT,0.98 ± 0.031
4,TGTTAGTTTG,0.981 ± 0.029
5,TAAATCGGGT,1 ± 0.013
6,CGGCGATGTT,0.9867 ± 0.0076
7,AGATTTGTCG,0.993 ± 0.068
8,TACGAGTTAA,0.97 ± 0.015
9,GCTGAATTGG,1.04 ± 0.053
10,GGCATGGTGG,1.01 ± 0.023
11,AATGGGGTGT,0.987 ± 0.021
12,ATATATTGGC,1.02 ± 0.054
13,GGCTTATGGA,0.98 ± 0.038
14,CATGGGGTCT,1.03 ± 0.05
15,CGTATCTATC,1.007 ± 0.0065
16,AGAGTCATGT,1.01 ± 0.029
17,CAGTGAGGGT,0.981 ± 0.019
18,GCGAGGGGCG,1 ± 0.062
19,TACGATGCGG,1.07 ± 0.038
20,ATGGGGTACG,0.972 ± 0.06
21,GGTGTTCTGT,0.9665 ± 0.0089
22,CTAAAGTTGG,0.995 ± 0.02
23,TGAGATTGC,1.03 ± 0.053
24,TTAGGGCCAA,1 ± 0.0078
25,ATTGGCCCAT,0.9642 ± 0.0017
26,AAGCGGGTCG,1.03 ± 0.049

row,Sequence,switch fluorescence ratio
1,ATAGAAGCGG,0.9684 ± 0.0029
2,TATTTTAATT,0.991 ± 0.017
3,GAAGGGCTAG,0.9985 ± 0.0061
4,TTATACAAGT,0.9574 ± 0.0065
5,AACCTGGTCG,1.069 ± 0.0046
6,GGGGAAGGGC,1.02 ± 0.053
7,CCAAGGGGAG,0.988 ± 0.037
8,AAGTTGTGGT,1.01 ± 0.023
9,GAGTGGGGGT,0.977 ± 0.032
10,AGGATCGGGG,1.01 ± 0.013
11,GGGCCGTGGG,0.992 ± 0.017
12,TTTTGCGAAG,1.03 ± 0.027
13,GTTAGAAGTG,0.9855 ± 0.006
14,CGTGTAGTTG,1.02 ± 0.026
15,TGTCATTGGA,0.989 ± 0.017
16,GTTATTGTGT,0.999 ± 0.028
17,ACATGTTATT,1.01 ± 0.035
18,TCTTTGTTGT,1.01 ± 0.019
19,CAATGTGGGT,0.986 ± 0.0086
20,GAGCTTTCCG,1.19 ± 0.26
21,TGGTGCTTGT,1.02 ± 0.024
22,GCTTTTTGCG,1.01 ± 0.03
23,GCCGGAAAAC,2.35 ± 0.2
24,GTTGTATTTT,0.989 ± 0.022
25,TTGTGTTTTT,0.995 ± 0.023
26,AATCTTCTTA,1.001 ± 0.0034

row,Sequence,switch fluorescence ratio
1,CATTGTGTGA,0.994 ± 0.021
2,ATGATTGTGG,0.997 ± 0.028
3,TCCAGGAATT,1 ± 0.016
4,TTTTTGCCGA,1.01 ± 0.052
5,AGGGGGGAAT,1.03 ± 0.048
6,CGAGCGTAGG,1.01 ± 0.043
7,GGATTGTATT,1.02 ± 0.0055
8,TTTTGTTTA,0.984 ± 0.022
9,AAGCTTCTGT,1.023 ± 0.0057
10,AACTTTTATT,1.01 ± 0.015
11,TGTGTGTGTT,1.02 ± 0.03
12,AGGGCTGCCC,1 ± 0.021
13,AATCTGATGG,0.974 ± 0.044
14,TATGTTGTAT,0.984 ± 0.053
15,AAATTTCTTA,1 ± 0.026
16,TCTTAGTAC,1.05 ± 0.013
17,ATTAGCTGGT,0.952 ± 0.017
18,TTATGAAAGG,0.968 ± 0.03
19,TTGTGAGTAG,1 ± 0.028
20,GGGATGGTGT,0.962 ± 0.016
21,AAAGGGGGTT,1.04 ± 0.042
22,AGCAAACTTA,1.14 ± 0.043
23,CAACGGGGGG,0.998 ± 0.029
24,GTGTTCGACG,0.995 ± 0.056
25,CAGGGGCAGC,0.927 ± 0.05
26,GTTTTATGTA,1.025 ± 0.0069

row,Sequence,switch fluorescence ratio
1,TTTGGCGAAA,1.01 ± 0.019
2,TTCGTTTTCT,1 ± 0.039
3,TGACGACTGT,1 ± 0.021
4,GCTTTTAAAG,1.04 ± 0.02
5,TATAGTGGTC,0.971 ± 0.035
6,GCATTTGCTG,0.9719 ± 0.0044
7,CGATCTTACG,0.9935 ± 0.0069
8,AAAAATGGAG,0.958 ± 0.017
9,CATTCGCTTT,1.88 ± 0.036
10,TCATTAGAGG,0.9942 ± 0.0067
11,GTGTGATTTT,0.992 ± 0.028
12,GTAAAGGGGG,0.998 ± 0.023
13,GGGGGAAGGC,1.15 ± 0.23
14,TGGGAAGGAT,1.006 ± 0.0016
15,AGCAGGAGGA,1 ± 0.031
16,TGAATCCATT,1 ± 0.036
17,TACGCGGTTG,1.07 ± 0.044
18,GCGGTTTGAG,0.933 ± 0.012
19,ATAGGGGTT,1.021 ± 0.005
20,GCTGGTTTGG,0.972 ± 0.052
21,AATGTAGGGG,1.02 ± 0.045
22,ATTAGGTGGG,1.05 ± 0.068
23,CCTGGGGCTT,1.03 ± 0.033
24,ACATAGGAAC,1.024 ± 0.004
25,TTTTTTCGCG,1 ± 0.016
26,CTGGTATGCG,0.969 ± 0.054

row,Sequence,switch fluorescence ratio
1,AATGCTGTAT,0.985 ± 0.011
2,TTGGGTAAGT,1.016 ± 0.0059
3,TGGCGGCTGG,0.996 ± 0.018
4,TTGTTTGGTG,0.932 ± 0.014
5,AATGGAATTG,0.9965 ± 0.005
6,ATCGCAGCTC,1.62 ± 0.017
7,CGGTGGAATC,1.36 ± 0.45
8,CAAGGTTGAA,0.9902 ± 0.0079
9,CCTGGGGCGT,1.06 ± 0.12
10,GGAAGTTACA,1.06 ± 0.016
11,TTTGATGTAG,1.01 ± 0.011
12,CCTGCGCACG,3.98 ± 0.93
13,GGAAAATTCT,1.01 ± 0.013
14,GGTAGTACGG,0.983 ± 0.014
15,GTTTTTGAAA,0.982 ± 0.037
16,GCTTGGGGGA,0.998 ± 0.041
17,AACATTGTGG,1.017 ± 0.0063
18,TGATCATACT,1.035 ± 0.0046
19,AAGGTTTTGC,0.99 ± 0.058
20,GAGGCAGCGA,1.3 ± 0.016
21,GCTATAGGGA,0.957 ± 0.014
22,ATTATTTATC,0.985 ± 0.088
23,GCCGCGGGAG,1.096 ± 0.0063
24,TTTGAGTAGG,0.992 ± 0.038
25,AGTCACGGGT,1.03 ± 0.016
26,TGCTGGGGCG,0.9876 ± 0.0022

row,Sequence,switch fluorescence ratio
1,CACCGTGGTC,1.14 ± 0.023
2,TGCATGGGGG,0.999 ± 0.044
3,GATTATCTCG,0.99 ± 0.049
4,CAGGGGTTA,1.03 ± 0.044
5,GGTTATCGAT,0.999 ± 0.0014
6,CGTTTTTGGG,0.985 ± 0.036
7,ATCAGGGGGA,0.997 ± 0.02
8,GTGAGTGGGG,0.972 ± 0.021
9,TTTGTGGACG,1.08 ± 0.08
10,CGGGGGAACG,1.01 ± 0.048
11,TTACCGGGAG,1.05 ± 0.013
12,TAGAGATCTA,1.011 ± 0.0016
13,AAATTGTAAA,0.969 ± 0.051
14,CGTAAGGGGG,1.02 ± 0.035
15,AAAATTAGGC,0.919 ± 0.063
16,TAATGAAGCG,0.993 ± 0.018
17,TTTGTTCGGA,0.9795 ± 0.0059
18,GAGTTTGCGT,1.03 ± 0.015
19,AAGAGATATG,1.02 ± 0.059
20,CGATTGCATG,1.05 ± 0.017
21,TTGTGTATGG,1.02 ± 0.052
22,GACTGTTCCG,0.958 ± 0.0055
23,AAGGGCTCGG,1.07 ± 0.14

# — the supplement of paper PMC10126150
